Measured values reported in article PMC4818545.
pKd: −log10 of the molar value. Like-named read-outs stand apart in the source and are kept apart here.

How the values were obtained:
[1] = target: recombinant (β15–66)2 fragment; assay: ELISA
VLDLR(1–4)HT (human) = VLDLR(1–4)HT (human) (UniProt P98155); assay: SPR
VLDLR(1–8)HT (human) = VLDLR(1–8)HT (human) (UniProt P98155); assay: SPR
VLDLR(2–3)HT (human) = VLDLR(2–3)HT (human) (UniProt P98155); assay: SPR
VLDLR(2–4)HT (human) = VLDLR(2–4)HT (human) (UniProt P98155); assay: SPR
[2] = target: recombinant (β15–66)2 fragment; assay: ELISA; remark: listed apart in the source
[3] = target: recombinant (β15–66)2 fragment; assay: ELISA; remark: listed apart in the source
[4] = target: fibrin (β15-66)2 fragment 15-66 (Homo sapiens) (UniProt P02675); assay: ELISA; conditions: cited from earlier work
Sequence of UniProt P02675 (P02675 15-66): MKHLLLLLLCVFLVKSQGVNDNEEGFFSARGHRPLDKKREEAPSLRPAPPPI

Row | Substance | pKd [1] | pKd [3] | other results
1 | VLDLR(1–4)HT (from UniProt P98155 28-190) (domain or fragment) | 7.22 |  | 
2 | recombinant (β15–66)2 fragment (domain or fragment) |  |  | pKd (VLDLR(1–4)HT (human)): 8.43; pKd (VLDLR(1–8)HT (human)): 8.51; pKd (VLDLR(2–3)HT (human)): 8.02; pKd (VLDLR(2–4)HT (human)): 8.34
3 | soluble form of human VLDL receptor, sVLDLRHT (from UniProt P98155 28-797) | 7.79 | 8.60 | 
4 | sVLDLR ECD (from UniProt P98155) |  |  | pKd [4]: 8.24

The next lines start with results.

Row | pKd [1] | pKd [3] | Substance | other results
5 | 7.11 |  | VLDLR(2–3)HT (from UniProt P98155 69-151) (domain or fragment) | 
6 | 7.79 | 8.47 | VLDLR(1–8)HT (from UniProt P98155 28-355) (domain or fragment) | pKd [2]: 7.68
